In patent publication US20250326835A1, “USE OF ANTI-CLAUDIN-1 ANTIBODIES TO TREAT CHOLANGIOCARCINOMA” (Alentis Therapeutics AG, priority 2022, published 2025):

Biological target: T1, human Claudin-1 (CLDN1) on EGI-1 cholangiocarcinoma cells (human, UniProt O95832 1-211)
T1 construct: whole, on cells; Endogenously expressed on human CCA cell lines; also called non-junctional CLDN1
T1 sequence (looked up): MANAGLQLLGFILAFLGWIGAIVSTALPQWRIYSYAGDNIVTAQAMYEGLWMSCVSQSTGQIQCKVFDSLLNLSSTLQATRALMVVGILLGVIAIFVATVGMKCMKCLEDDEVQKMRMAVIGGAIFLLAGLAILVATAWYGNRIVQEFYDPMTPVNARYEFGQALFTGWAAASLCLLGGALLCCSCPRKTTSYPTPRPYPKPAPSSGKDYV
Test: flow cytometry on EGI-1 cells, 10 µg/ml antibody, Alexa647 secondary, delta-MFI against isotype control
Protocol: A first-line chemotherapy treatment for advanced CCA is cisplatin plus gemcitabine (Borbath et al., 48(7) Eur J Cancer 990-996 (May 2012)). To investigate the expression of CLDN1 upon treatment with cisplatin and gemcitabine, 1.5×10⁵ CCA EGI-1 cells were treated with cisplatin (100 nM) and gemcitabine (10 nM) for 24 hours. Cells were then collected, and CLDN1 expression was assessed by flow cytometry and Western Blot using CLDN1 specific Abs.
For flow cytometry, cells were incubated with the anti-CLDN1 mAb H3L3 or the isotype control mAb at a concentration of 10 μg/ml in triplicates per condition. Following incubation with the primary antibody for 1 hour, cells were washed and incubated with human Alexa647-conjugated secondary antibody at 4° C. for 45 minutes. Cells were subsequently washed and fixed with 2% paraformaldehyde (PFA). Data were acquired using Cytoflex B2R2V0 (Beckman Coulter) and analyzed using CytExpert 2.1 and FlowJo v10 (Beckman Coulter). CLDN1 expression was calculated as the difference of the mean fluorescence intensities of cells stained with anti-CLDN1 mAb H3L3 and isotype control mAb. The experiment was independently repeated three times.

B1: anti-CLDN1 mAb H3L3 (antibody, human IgG1, kappa, V domains shown)
VH: QVQLVESGGGVVQPGRSLRLSCLGSGFSFSSYGMNWVRQAPGKGLEWVASISPSGSYFYYADSVKGRFTISRDNSKNTLYLQMTSLRAEDTAIYYCARLPGFNPPFDHWGQGTLVTVSS
VL: DIQMTQSPSSLSASVGDRVTITCKASQNVGGNVDWYQWKPGKAPKLLIYGASNRYTGVPDRFRGSGSGTDFTLTISSLQPEDVATYYCLQYKNNPWTFGGGTKVEIKR
notes: also called CLDN1-specific mAb H3L3; anti-CLDN1 H3L3 antibody
**Q.** Does B1 bind?
**A.** Result: binds
